Assay results from publication PMC5563082, “Structural Mechanism for Modulation of Synaptic Neuroligin-Neurexin Signaling by MDGA Proteins” (Neuron, 2017).

T1: human MDGA2 extracellular domain (MDGA2_(ECTO); Gln21-Lys927) (human, UniProt Q7Z553 21-927)
T1 construct: human MAM domain-containing glycosylphosphatidylinositol anchor protein 2, Gln21-Lys927; Not deglycosylated; source: HEK293T, transient transfection, purified (IMAC, SEC)
T1 sequence (looked up): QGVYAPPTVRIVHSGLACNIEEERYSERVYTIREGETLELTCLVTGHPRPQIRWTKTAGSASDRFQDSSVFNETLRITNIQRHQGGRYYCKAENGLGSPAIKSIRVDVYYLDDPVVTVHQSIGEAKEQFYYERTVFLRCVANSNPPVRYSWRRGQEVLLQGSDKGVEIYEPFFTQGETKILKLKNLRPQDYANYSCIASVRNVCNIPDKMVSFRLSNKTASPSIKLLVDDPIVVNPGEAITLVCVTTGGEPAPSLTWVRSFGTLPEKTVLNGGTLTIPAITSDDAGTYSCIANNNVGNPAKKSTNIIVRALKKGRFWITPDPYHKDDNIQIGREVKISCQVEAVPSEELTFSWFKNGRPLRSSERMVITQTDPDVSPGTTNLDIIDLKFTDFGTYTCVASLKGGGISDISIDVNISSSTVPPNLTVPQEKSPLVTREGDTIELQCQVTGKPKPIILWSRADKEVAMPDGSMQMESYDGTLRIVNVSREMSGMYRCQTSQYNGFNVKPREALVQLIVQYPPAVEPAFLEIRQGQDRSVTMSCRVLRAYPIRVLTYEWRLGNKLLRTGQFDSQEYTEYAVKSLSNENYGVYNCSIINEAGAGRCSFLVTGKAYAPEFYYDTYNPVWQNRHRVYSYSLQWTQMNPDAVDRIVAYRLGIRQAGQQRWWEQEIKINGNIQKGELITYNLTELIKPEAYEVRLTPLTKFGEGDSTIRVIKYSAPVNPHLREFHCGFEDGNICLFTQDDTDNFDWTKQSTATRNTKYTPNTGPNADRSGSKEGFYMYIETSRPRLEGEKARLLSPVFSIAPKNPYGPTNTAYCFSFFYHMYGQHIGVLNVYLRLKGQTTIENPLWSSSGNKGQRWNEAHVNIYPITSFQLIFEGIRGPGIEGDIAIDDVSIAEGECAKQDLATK

T2: human MDGA1 extracellular domain (MDGA1_(ECTO); Gln19-Lys925) (human, UniProt Q8NFP4-1 19-925)
T2 construct: human MAM domain-containing glycosylphosphatidylinositol anchor protein 1, Gln19-Lys925; Not deglycosylated; also called human MDGA1_(ECTO); source: HEK293T, transient transfection, purified (IMAC, SEC)
T2 sequence (looked up): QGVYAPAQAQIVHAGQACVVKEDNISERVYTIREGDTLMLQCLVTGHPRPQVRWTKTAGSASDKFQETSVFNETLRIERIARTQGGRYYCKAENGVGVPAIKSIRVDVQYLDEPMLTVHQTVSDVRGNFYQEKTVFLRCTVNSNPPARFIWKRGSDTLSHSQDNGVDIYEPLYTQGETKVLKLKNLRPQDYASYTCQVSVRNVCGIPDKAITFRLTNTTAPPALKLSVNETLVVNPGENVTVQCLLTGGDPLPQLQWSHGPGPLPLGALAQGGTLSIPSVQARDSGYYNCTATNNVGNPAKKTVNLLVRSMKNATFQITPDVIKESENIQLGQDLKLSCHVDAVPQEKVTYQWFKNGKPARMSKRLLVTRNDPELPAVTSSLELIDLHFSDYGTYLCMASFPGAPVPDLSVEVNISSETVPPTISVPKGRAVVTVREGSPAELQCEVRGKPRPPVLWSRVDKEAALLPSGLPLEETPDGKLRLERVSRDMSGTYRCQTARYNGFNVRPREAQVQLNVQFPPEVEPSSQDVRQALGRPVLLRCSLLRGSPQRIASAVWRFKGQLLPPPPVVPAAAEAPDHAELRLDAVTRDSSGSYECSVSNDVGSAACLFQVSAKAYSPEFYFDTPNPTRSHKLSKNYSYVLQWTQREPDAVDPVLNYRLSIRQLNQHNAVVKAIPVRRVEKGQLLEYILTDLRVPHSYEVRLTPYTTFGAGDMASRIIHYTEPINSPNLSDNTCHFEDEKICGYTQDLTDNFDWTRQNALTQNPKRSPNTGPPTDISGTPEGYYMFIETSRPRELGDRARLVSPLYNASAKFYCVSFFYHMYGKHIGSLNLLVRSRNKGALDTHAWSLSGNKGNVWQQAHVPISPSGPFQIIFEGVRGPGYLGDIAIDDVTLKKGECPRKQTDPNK

B1: human NL3(+A2)_(ECTO), immobilised for SPR (domain or fragment, UniProt Q9NZ94-1 38-636, looked up)
chain: QAPAPTVNTHFGKLRGARVPLPSEILGPVDQYLGVPYAAPPIGEKRFLPPEPPPSWSGIRNATHFPPVCPQNIHTAVPEVMLPVWFTANLDIVATYIQEPNEDCLYLNVYVPTEDGSGAKKQGEDLADNDGDEDEDIRDSGAKPVMVYIHGGSYMEGTGNMIDGSILASYGNVIVITLNYRVGVLGFLSTGDQAAKGNYGLLDQIQALRWVSENIAFFGGDPRRITVFGSGIGASCVSLLTLSHHSEGLFQRAIIQSGSALSSWAVNYQPVKYTSLLADKVGCNVLDTVDMVDCLRQKSAKELVEQDIQPARYHVAFGPVIDGDVIPDDPEILMEQGEFLNYDIMLGVNQGEGLKFVEGVVDPEDGVSGTDFDYSVSNFVDNLYGYPEGKDTLRETIKFMYTDWADRDNPETRRKTLVALFTDHQWVEPSVVTADLHARYGSPTYFYAFYHHCQSLMKPAWSDAAHGDEVPYVFGVPMVGPTDLFPCNFSKNDVMLSAVVMTYWTNFAKTGDPNKPVPQDTKFIHTKANRFEEVAWSKYNPRDQLYLHIGLKPRVRDHYRATKVAFWKHLVPHLYNLHD
modifications: biotin on the Avitag (in vivo biotinylation by BirA)
notes: source: HEK293T, co-transfected with ER-resident BirA; dialysed conditioned medium, captured on streptavidin chip
B2: human NL3(+A1+A2)_(ECTO), immobilised for SPR (domain or fragment, UniProt Q9NZ94-1 38-636, looked up)
chain: QAPAPTVNTHFGKLRGARVPLPSEILGPVDQYLGVPYAAPPIGEKRFLPPEPPPSWSGIRNATHFPPVCPQNIHTAVPEVMLPVWFTANLDIVATYIQEPNEDCLYLNVYVPTEDVKRISKECARKPNKKICRKGGSGAKKQGEDLADNDGDEDEDIRDSGAKPVMVYIHGGSYMEGTGNMIDGSILASYGNVIVITLNYRVGVLGFLSTGDQAAKGNYGLLDQIQALRWVSENIAFFGGDPRRITVFGSGIGASCVSLLTLSHHSEGLFQRAIIQSGSALSSWAVNYQPVKYTSLLADKVGCNVLDTVDMVDCLRQKSAKELVEQDIQPARYHVAFGPVIDGDVIPDDPEILMEQGEFLNYDIMLGVNQGEGLKFVEGVVDPEDGVSGTDFDYSVSNFVDNLYGYPEGKDTLRETIKFMYTDWADRDNPETRRKTLVALFTDHQWVEPSVVTADLHARYGSPTYFYAFYHHCQSLMKPAWSDAAHGDEVPYVFGVPMVGPTDLFPCNFSKNDVMLSAVVMTYWTNFAKTGDPNKPVPQDTKFIHTKANRFEEVAWSKYNPRDQLYLHIGLKPRVRDHYRATKVAFWKHLVPHLYNLHD
modifications: biotin on the Avitag (in vivo biotinylation by BirA)
notes: as for B1

How the values were obtained:
[1] = target: T1, human MDGA2 extracellular domain …; test: SPR; biotinylated NL_(ECTO)-Avitag variants captured from dialysed conditioned medium on streptavidin CM5 chip (500 RU; 550 RU for the ΔSite series; 1000 RU for NL3 and NL3 Arg451Cys in the R451C series); β-NRX1_(LNS6)(±4), MDGA1_(ECTO), MDGA2_(ECTO) injected, 15 concentrations, two-fold series from 50 μM; TBS-CTB (10 mM Tris pH 7.4, 150 mM NaCl, 3 mM CaCl2, 0.005% Tween-20, 1.0 g/L BSA); equilibrium analysis, 1:1 …; conditions: both partners purified
[2] = target: T2, human MDGA1 extracellular domain …; test: as above; conditions: both partners purified

Row | Binder | binding result [1] | binding result [2]
1 | B1 | binds | binds
2 | B2 | binds | binds
